Usually EC50 stands for the midpoint of the concentration-response curve. A low value points to higher potency in that assay. A word on the Kd: it is the free concentration of one partner at which half of the binding sites on the other are occupied at equilibrium, for simple one-to-one binding. Higher therefore signals lower affinity. As a reminder, the koff is the first-order rate constant of dissociation. Read a low koff as a long-lived complex. The term kon denotes a measure of how fast the partners come together. Read a high kon as fast association. By IC50 is commonly meant the concentration at which inhibition is half-maximal. A higher IC50 goes with weaker potency.

Nine molecules from patent US20210163599A1 (AVACTA LIFE SCIENCES, published 2021) can be followed below.

The target of assay [1] is T1, huPD-L1 on H441 cells (human, UniProt Q9NZQ7 19-290).
T1 construct: whole, on cells; also called H441 cells (expressing huPD-L1)
The assay is described as follows: flow cytometry, % of positive H441 cells (human lung adenocarcinoma cells expressing PD-L1). The protocol:
The binding affinity of AVA04 Affimer polypeptides was determined using Flow cytometry on Human lung adenocarcinoma cell line. […] Cells were collected by centrifugation at 300 rpm for 5 min. The cells were resuspended in PBS and 50000 cells per wells were dispatched in a round bottom 96 well plate. Cells were washed with PBS. Affimer and controls were diluted in staining buffer (R&D) in duplicate and added on cells for staining for approximately 60 min at 4±1° c. Cells were washed and the secondary anti-Cystatin A (R&D) was diluted 1:15 in staining buffer (R&D) and added on cells for staining for approximately 40 min at 4±1° c. Cells were washed and the detection antibody A488 anti-Goat (Biolegend) was diluted 1:100 in staining buffer (R&D) and added on cells for staining for approximately 30 min at 4±1° c. Finally, cells were washed, live and dead cells were stained using L/D stain Zombie Aqua (Biolegend) diluted in staining buffer for 10 min at 4±1° c. Cells were washed and fixation buffer (R&D) was added to each well for 10 min at 4±1° C. then PBS with EDTA (Lonza) was added prior reading the plate on the flow cytometer (Guava 12 HT, Millipore). Dead cells were excluded and the fluorescent Green channel (488 nm/525/30) was acquired. Results were analyzed using Incyte and data were plotted using graphpad.
On the technique in general: A flow cytometer gives signals particle by particle.

The target of assay [2] is T2, huPD-L1-Fc (R&D Systems) (human, UniProt Q9NZQ7 19-239).
T2 construct: Bought from R&D Systems; also called hPDL1-Fc; human PD-L1 Fc antigen
The assay is described as follows: Biacore. For orientation: In SPR one partner is held on a chip, and binding of the other changes the refractive index at the surface.

Assay [3] concerns the target T2, huPD-L1-Fc (R&D Systems). Put plainly: Biacore (target not named on the sheet; PD-L1 by the example).
The target of assay [4] is T2, huPD-L1-Fc (R&D Systems). The assay is described as follows: Biacore T200, PD-L1-Fc immobilised on CM5, Affimer as analyte, 1:1 Langmuir fit. As for the experimental part:
The concentration titration of Affimer monomer was run as analyte with an association time of 150 seconds, followed by a dissociation time of 300 seconds at a flow rate of 30 μl/min. […] The data blank was subtracted and fit to a 1:1 Langmuir binding model (BIAcore evaluation software; GE) to calculate an apparent KD value.

The target in assay [5] is T2, huPD-L1-Fc (R&D Systems). The assay is described as follows: competition ELISA: hu PD-1-Fc coated, binder preincubated with 30 ng/ml huPD-L1-Fc; blocked ligand PD-1. The protocol: Plates were washed 2 times with 150 μl of washing buffer (PBS, Tween 20 0.1%) with a plate washer and saturated with Casein 5% (Sigma) in PBS for 90 minutes at room temperature (25±1° C.) Plates were washed as described previously. […] The reaction was stopped using an acidic solution and plates were read at 450-630 nm. The IC 50 was then calculated using the interpolated non-linear four-parameters standard curve.
In general terms: ELISA stands for enzyme-linked immunosorbent assay.

Residue numbers refer to the chain shown, from its start. Names may count otherwise.

T2 sequence (Q9NZQ7 19-239 limits assumed): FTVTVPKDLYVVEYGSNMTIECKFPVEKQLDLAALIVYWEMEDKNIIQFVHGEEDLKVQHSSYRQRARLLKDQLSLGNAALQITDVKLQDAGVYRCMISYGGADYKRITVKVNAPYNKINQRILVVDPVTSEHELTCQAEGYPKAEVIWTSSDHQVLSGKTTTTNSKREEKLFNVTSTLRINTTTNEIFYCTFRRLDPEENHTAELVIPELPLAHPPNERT
T1 sequence (Q9NZQ7 19-290): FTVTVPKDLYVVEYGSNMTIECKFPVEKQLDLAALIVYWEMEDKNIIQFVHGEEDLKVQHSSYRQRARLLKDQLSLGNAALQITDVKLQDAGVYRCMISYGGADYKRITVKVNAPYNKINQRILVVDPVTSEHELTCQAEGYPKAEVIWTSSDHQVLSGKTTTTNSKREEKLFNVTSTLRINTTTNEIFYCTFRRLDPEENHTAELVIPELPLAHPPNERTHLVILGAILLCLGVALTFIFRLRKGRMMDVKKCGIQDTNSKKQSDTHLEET

B1: AVA04-211 (designed binder)
Affimer polypeptide: MIPRGLSEAKPATPEIQEIVDKVKPQLEEKTNETYGKLEAVQYKTQVLAKDWGPSNWWSTNYYIKVRAGDNKYMHLKVFNGPVDDKTLSKDADRVLTGYQVDKNKDDELTGFAAAGHHHHHH
notes: also called AVA04 clone 211
B1 showed an EC50 in assay [1] of 0.21 nM.

B2: AVA04-269 (designed binder)
Affimer polypeptide: MIPRGLSEAKPATPEIQEIVDKVKPQLEEKTNETYGKLEAVQYKTQVLAKEYGPEEWWSTNYYIKVRAGDNKYMHLKVFNGPGDYEQVLIHADRVLTGYQVDKNKDDELTGFAAAGHHHHHH
notes: also called AVA04 clone 269
On to B2, for which the EC50 in assay [1] came out at 0.01 nM.

B3: AVA04-227 (designed binder)
Affimer polypeptide: B1 Affimer polypeptide with W52H, S55I, N56A, V83E, D85T, K86N, L88D, S89G, K90A, D91L
notes: also called AVA04 clone 227
As for B3, in assay [1], the EC50 stood at 0.04 nM.

B4: AVA04-261 BN (designed binder)
chain: MIPRGLSEAKPATPEIQEIVDKVKPQLEEKTNETYGKLEAVQYKTQVLAHAYGPRDWDSTNYYIKVRAGDNKYMHLKVFNGPPADHVLEEAADRVLTGYQVDKNKDDELTGFGGGGSGGGGSGGGGSGGGGSEPKSCDKTHTCPPCPHHHHHH
notes: Affimer - (G4S)4 - human IgG1 hinge - His; dimerises through the hinge cysteines
The molecule B4 returned a dissociation constant (Kd) in assay [2] of 0.0599 nM. In assay [3], the koff worked out at 0.000156 s⁻¹ and the on-rate (kon) stood at 2.61e+06 M⁻¹ s⁻¹.

B5: AVA04-251 (designed binder)
chain: MIPRGLSEAKPATPEIQEIVDKVKPQLEEKTNETYGKLEAVQYKTQVLAREGRQDWVLSTNYYIKVRAGDNKYMHLKVFNGPWVPFPHQQLADRVLTGYQVDKNKDDELTGFAAAGHHHHHH
As for B5, a half-maximal effect in assay [1] (EC50) was put at 2.06 nM.

B6: AVA04-228 (designed binder)
Affimer polypeptide: MIPRGLSEAKPATPEIQEIVDKVKPQLEEKTNETYGKLEAVQYKTQVLAKPYGPRDWDSTNYYIKVRAGDNKYMHLKVFNGPEPQLDTSPIADRVLTGYQVDKNKDDELTGFAAAGHHHHHH
notes: also called AVA04 clone 228
Take B6: the EC50 in assay [1] was determined as 0.18 nM.

B7: AVA04-261 (designed binder)
chain: MIPRGLSEAKPATPEIQEIVDKVKPQLEEKTNETYGKLEAVQYKTQVLAHAYGPRDWDSTNYYIKVRAGDNKYMHLKVFNGPPADHVLEEAADRVLTGYQVDKNKDDELTGFAAAGHHHHHH
In assay [1], B7 showed an EC50 of 0.043 nM.

B8: AVA04-141 Monomer His (designed binder)
Affimer polypeptide: MIPRGLSEAKPATPEIQEIVDKVKPQLEEKTNETYGKLEAVQYKTQVLAAAHFPEHFWSTNYYIKVRAGDNKYMHLKVFNGPQPADMSAEFADRVLTGYQVDKNKDDELTGFAAAGHHHHHH
notes: also called Affimer monomer; AVA04 clone 141
Consider B8, for which, in assay [4], the affinity, expressed as Kd, was 8.9 nM; the koff was 0.0251 s⁻¹; the kon came to 2.81e+06 M⁻¹ s⁻¹. Also, in assay [5], the IC50 was found to be 2.5 nM.

B9: AVA04-231 (designed binder)
Affimer polypeptide: MIPRGLSEAKPATPEIQEIVDKVKPQLEEKTNETYGKLEAVQYKTQVLANTWFPESFWSTNYYIKVRAGDNKYMHLKVFNGPDDNQERQEHADRVLTGYQVDKNKDDELTGFAAAGHHHHHH
notes: also called AVA04 clone 231
Molecule B9 showed an EC50 in assay [1] of 9.51 nM.
